According to US20230056099 (published 2023):

B1: D3 (ssDNA)
DNA: ATCTCGACTAGTCATAGGGGGCGCGAACATACGCGGTTGGTGTGGTTGGCTGACAA
modifications: circular (5' and 3' ends joined)
B2: TBCA (ssDNA)
DNA: ATCTCGACTAGTCATAGGGGGCGCGAACATACGCGGTTGGTGTGGTTGGCTGACAATACTCGTTTTTGGTGTCTCGGAT
modifications: circular (5' and 3' ends joined)
B3: D2 (ssDNA)
DNA: ATCTCGACTAGTCATAGGGGGCGCGAACATACGCGGTTGGTGTGGTTGGCTGACAATACTCGT
modifications: circular (5' and 3' ends joined)
B4: D1 (ssDNA)
DNA: ATCTCGACTAGTCATAGGGGGCGCGAACATACGCGGTTGGTGTGGTTGGCTGACAATACTCGTGTCTCGGAT
modifications: circular (5' and 3' ends joined)

These binders were tested against thrombin (human alpha-thrombin) (UniProt P00734;P00734 P00734:328-363,P00734:364-622) (assay: inhibition; 0.1 nM thrombin, 2 uM fibrinogen, absorbance 350 nm).
With B1 the IC50 was 0.13 nM. Work on B2 yielded an IC50 of 0.15 nM. B3 gave an IC50 of 0.09 nM. For GGTTGGTGTGGTTGG (ssDNA) [TBA], the IC50 was 1.3 nM. B4 showed an IC50 of 0.15 nM.
